Measurements from paper PMC7946940 (Nature Communications, 2021).
Substitutions are numbered along the chain they refer to. Names and notes keep the numbering of the source. Each block holds one binder with its values, some of them ahead of it.

Columns and labels:
Settings in all cases: both partners purified
[1] = target: T1, human VPS34 complex II (VPS34/VPS15/Beclin 1/UVRAG) (human, UniProt Q8NEB9 1-887; Q99570 1-1358; Q14457 1-450; Q9P2Y5 1-699); assay: HDX-MS; complex II (5 μM) alone or with 30 μM Rab5a-Q79L-GTP; 25 mM HEPES pH 8.0, 50 mM NaCl, 1 mM TCEP, room temperature; 3/30/300/3000 s
T1 construct: VPS34, human, subunit of complex II; VPS15, human, subunit of complex II; Beclin 1, human, subunit of complex II; UVRAG, human, subunit of complex II; Heterotetramer; Purified on IgG beads and released with TEV protease; also called endocytic complex II; source: Expi293F, transfected, purified (IgG beads, TEV protease elution, S200 gel filtration); copies: + + +

[2] = target: T2, human VPS34 complex I (VPS34/VPS15/Beclin 1/ATG14L) (human, UniProt Q8NEB9 1-887; Q99570 1-1358; Q14457 1-450; Q6ZNE5 1-492); assay: vesicle flotation assay; GTP-loaded Rab coupled by its C-terminal Cys to PE-MCC in 100 nm LUVs; 1.8 mM LUVs and 2 μM VPS34 complex, 25 mM HEPES pH 8.0, 150 mM NaCl, 1 mM TCEP, 30 min on ice; sucrose gradient, fractions on SDS-PAGE
T2 construct: VPS34, human, subunit of complex I; VPS15, human, subunit of complex I; Beclin 1, human, subunit of complex I; ATG14L, human, subunit of complex I; Heterotetramer; Purified on IgG beads and released with TEV protease; also called autophagy-specific complex I; source: Expi293F, transfected, purified (IgG beads, TEV protease elution, S200 gel filtration); copies: + + +

[3] = target: T3, VPS34 (subunit of complex II–BATS in the cryo-ET structure) (human, UniProt Q8NEB9 1-887); assay: cryo-EM structure; cryo-ET and subtomogram averaging, 9.8 Å; 16 μM complex II–BATS on LUVs decorated with Rab5a–GTP
T3 construct: VPS34, human; source: Expi293F, transfected, purified within complex II–BATS

[4] = target: T4, VPS15 (subunit of complex II–BATS in the cryo-ET structure) (human, UniProt Q99570 1-1358); assay: as above
T4 construct: VPS15, human; source: Expi293F, transfected, purified within complex II–BATS

[5] = target: T1, human VPS34 complex II …; assay: vesicle flotation assay; GTP-loaded Rab coupled by its C-terminal Cys to PE-MCC in 100 nm LUVs; 1.8 mM LUVs and 2 μM VPS34 complex, 25 mM HEPES pH 8.0, 150 mM NaCl, 1 mM TCEP, 30 min on ice; sucrose gradient, fractions on SDS-PAGE
human VPS34 alone = target: T5, human VPS34 alone (human, UniProt Q8NEB9 1-887); assay: cross-linking; proximity-triggered cross-linking by the unnatural amino acid BrCO6K at Rab5a residue 84; 50–100 molar excess of Rab5a over complex II, 100–200 molar excess over VPS34; overnight at 4 °C; SDS-PAGE and mass spectrometry of the bands
T5 construct: VPS34, human; printed mass 102 kDa; source: E. coli C41 (DE3), purified (Ni-NTA, heparin, gel filtration)

[6] = target: T1, human VPS34 complex II …; assay: as above

T1 sequence (Q8NEB9 whole entry, chain 1 of 4): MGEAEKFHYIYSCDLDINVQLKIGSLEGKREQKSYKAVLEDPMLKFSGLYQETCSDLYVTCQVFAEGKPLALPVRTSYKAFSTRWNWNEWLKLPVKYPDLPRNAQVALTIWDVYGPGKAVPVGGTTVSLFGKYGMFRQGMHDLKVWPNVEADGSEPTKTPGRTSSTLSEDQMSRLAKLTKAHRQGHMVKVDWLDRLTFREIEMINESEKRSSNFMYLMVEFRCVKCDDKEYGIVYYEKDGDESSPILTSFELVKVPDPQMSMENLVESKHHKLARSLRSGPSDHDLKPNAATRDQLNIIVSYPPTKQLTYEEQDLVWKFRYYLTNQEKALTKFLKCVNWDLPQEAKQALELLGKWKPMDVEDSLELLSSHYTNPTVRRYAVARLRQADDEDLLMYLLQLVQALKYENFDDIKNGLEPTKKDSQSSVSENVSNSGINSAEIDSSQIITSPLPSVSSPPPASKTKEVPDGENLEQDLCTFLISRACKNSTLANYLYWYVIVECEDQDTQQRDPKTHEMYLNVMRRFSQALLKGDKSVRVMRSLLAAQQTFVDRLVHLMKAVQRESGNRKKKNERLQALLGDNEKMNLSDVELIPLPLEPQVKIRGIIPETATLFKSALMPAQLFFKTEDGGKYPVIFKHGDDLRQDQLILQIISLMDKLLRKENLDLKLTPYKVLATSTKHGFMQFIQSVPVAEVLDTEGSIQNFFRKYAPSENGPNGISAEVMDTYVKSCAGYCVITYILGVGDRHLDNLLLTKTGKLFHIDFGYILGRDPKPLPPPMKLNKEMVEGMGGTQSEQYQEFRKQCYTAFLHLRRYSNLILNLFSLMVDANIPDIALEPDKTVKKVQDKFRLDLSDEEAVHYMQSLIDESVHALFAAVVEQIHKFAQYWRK
T1 sequence (Q99570 whole entry, chain 2 of 4): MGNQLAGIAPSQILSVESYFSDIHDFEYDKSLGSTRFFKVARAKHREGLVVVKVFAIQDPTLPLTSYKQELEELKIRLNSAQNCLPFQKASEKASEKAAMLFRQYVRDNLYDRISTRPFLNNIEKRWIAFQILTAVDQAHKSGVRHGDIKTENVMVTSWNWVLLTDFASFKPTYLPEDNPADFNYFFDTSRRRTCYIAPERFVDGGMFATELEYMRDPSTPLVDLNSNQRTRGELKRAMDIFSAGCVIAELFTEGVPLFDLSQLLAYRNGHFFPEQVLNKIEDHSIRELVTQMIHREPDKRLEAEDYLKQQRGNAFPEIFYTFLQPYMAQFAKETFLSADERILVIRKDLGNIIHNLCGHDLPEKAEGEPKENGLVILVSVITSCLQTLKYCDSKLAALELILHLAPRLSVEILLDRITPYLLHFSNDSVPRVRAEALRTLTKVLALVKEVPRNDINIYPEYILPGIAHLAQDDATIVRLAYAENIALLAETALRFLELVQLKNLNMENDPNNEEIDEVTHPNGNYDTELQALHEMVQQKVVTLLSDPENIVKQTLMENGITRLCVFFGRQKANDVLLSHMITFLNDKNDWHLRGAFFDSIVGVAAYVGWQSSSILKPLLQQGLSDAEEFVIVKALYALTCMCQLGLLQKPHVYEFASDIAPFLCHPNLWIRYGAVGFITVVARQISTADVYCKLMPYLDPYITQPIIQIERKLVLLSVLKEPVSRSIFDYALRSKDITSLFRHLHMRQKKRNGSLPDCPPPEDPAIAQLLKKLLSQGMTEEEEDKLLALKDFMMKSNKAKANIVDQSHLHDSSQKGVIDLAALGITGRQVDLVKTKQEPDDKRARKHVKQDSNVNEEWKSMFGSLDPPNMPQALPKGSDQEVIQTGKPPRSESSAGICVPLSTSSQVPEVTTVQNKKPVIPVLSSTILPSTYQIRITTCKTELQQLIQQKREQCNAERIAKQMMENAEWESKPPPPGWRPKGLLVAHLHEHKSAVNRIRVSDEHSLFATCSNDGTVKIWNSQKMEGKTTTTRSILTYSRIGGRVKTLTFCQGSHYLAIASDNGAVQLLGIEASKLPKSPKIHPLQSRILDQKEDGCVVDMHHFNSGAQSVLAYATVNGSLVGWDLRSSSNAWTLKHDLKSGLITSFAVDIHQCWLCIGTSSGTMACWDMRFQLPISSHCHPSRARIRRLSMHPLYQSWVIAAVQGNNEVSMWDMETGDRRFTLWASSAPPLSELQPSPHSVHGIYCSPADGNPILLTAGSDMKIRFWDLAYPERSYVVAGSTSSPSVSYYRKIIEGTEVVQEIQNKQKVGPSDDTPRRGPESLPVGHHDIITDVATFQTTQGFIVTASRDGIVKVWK
T1 sequence (Q14457 whole entry, chain 3 of 4): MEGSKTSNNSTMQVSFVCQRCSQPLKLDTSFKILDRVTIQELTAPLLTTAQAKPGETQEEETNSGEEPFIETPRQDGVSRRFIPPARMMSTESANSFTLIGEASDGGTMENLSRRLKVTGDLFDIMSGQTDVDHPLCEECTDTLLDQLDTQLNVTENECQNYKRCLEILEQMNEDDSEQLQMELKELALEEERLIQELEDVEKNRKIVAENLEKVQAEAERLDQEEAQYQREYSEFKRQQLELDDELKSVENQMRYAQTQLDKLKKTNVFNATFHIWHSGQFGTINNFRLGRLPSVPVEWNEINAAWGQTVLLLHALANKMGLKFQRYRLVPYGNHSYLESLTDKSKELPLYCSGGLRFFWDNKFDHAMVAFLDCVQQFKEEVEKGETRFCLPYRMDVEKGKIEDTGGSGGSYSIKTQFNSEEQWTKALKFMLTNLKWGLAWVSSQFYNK
T1 sequence (Q9P2Y5 whole entry, chain 4 of 4): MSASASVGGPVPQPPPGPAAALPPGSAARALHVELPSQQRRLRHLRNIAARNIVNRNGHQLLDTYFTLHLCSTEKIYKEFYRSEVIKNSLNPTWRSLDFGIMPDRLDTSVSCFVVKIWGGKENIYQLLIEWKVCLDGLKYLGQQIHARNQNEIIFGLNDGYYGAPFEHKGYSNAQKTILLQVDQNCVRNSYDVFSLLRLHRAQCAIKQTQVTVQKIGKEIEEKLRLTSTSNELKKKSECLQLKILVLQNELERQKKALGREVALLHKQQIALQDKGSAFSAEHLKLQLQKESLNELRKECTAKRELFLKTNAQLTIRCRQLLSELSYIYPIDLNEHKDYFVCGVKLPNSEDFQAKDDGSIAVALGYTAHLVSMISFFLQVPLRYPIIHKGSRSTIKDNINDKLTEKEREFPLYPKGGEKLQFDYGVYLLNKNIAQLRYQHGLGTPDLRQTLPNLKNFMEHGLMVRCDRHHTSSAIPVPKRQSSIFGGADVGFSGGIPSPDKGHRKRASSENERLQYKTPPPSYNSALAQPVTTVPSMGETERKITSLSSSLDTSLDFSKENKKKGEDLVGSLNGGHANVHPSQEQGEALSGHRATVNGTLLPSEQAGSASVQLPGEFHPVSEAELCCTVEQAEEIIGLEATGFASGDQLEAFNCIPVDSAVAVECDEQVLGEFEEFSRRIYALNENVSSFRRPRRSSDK
T2 sequence (Q8NEB9 whole entry, chain 1 of 4): as the sequence (Q8NEB9 whole entry, chain 1 of 4) above
T2 sequence (Q99570 whole entry, chain 2 of 4): as the sequence (Q99570 whole entry, chain 2 of 4) above
T2 sequence (Q14457 whole entry, chain 3 of 4): as the sequence (Q14457 whole entry, chain 3 of 4) above
T2 sequence (Q6ZNE5 whole entry, chain 4 of 4): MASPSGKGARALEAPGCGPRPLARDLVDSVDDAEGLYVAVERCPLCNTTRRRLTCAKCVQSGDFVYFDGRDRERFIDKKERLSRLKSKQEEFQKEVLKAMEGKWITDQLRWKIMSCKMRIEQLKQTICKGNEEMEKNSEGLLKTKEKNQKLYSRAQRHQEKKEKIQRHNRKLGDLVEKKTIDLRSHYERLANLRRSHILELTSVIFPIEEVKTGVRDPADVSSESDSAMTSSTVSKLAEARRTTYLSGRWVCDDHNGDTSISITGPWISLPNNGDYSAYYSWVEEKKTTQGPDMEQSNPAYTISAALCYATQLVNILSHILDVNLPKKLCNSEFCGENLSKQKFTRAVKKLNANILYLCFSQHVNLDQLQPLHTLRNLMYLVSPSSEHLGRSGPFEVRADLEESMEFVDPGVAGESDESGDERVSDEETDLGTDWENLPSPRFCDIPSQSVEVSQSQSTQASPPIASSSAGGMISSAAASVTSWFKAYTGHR
T4 sequence (Q99570 whole entry, one chain of several): as the sequence (Q99570 whole entry, chain 2 of 4) above
T5 sequence (Q8NEB9 whole entry): as the sequence (Q8NEB9 whole entry, chain 1 of 4) above
T3 sequence (Q8NEB9 whole entry, one chain of several): as the sequence (Q8NEB9 whole entry, chain 1 of 4) above

binding result [3]: binds
binding result [4]: binds
binding result [5]: binds
B3: Rab5a(1–212)-Q79L-C19S-C63S (natural protein, human, UniProt P20339 1-212, looked up)
chain: MASRGATRPNGPNTGNKISQFKLVLLGESAVGKSSLVLRFVKGQFHEFQESTIGAAFLTQTVSLDDTTVKFEIWDTAGLERYHSLAPMYYRGAQAAIVVYDITNEESFARAKNWVKELQRQASPNIVIALSGNKADLANKRAVDFQEAQSYADDNSLLFMETSAKTSMNVNEIFMAIAKKLPKNEPQNPGANSARGRGVDLTEPTQPTRNQC
modifications: C-terminal cysteine coupled covalently to a maleimide-conjugated lipid (PE-MCC) in the membrane
notes: Rab5a, human, residues 1–212; Loaded with GTP or GDP before coupling to GUVs or LUVs; also called Rab5a (Q79L); membrane-anchored Rab5a–GTP; source: E. coli C41(DE3)RIPL, purified (Ni-NTA, SUMO protease, size-exclusion chromatography); not shown: His-SUMO, N-terminal, cleaved
binding result [2]: binds

binding result (human VPS34 alone): binds
binding result [6]: binds
B4: Rab5a S84BrCO6K (Rab5a_Q79L_1-212_C19S_C63S_S84TAG-His6) (natural protein, human, UniProt P20339 1-212, looked up)
chain: B3 chain with S84K
modifications: BrCO6K (bromoalkyl-bearing lysine derivative, unnatural amino acid) at 84
notes: Rab5a, human, residues 1-212, amber codon at S84 read as BrCO6K; Loaded with GTP; Residue 84 is the lysine derivative BrCO6K, written as K; also called Rab5a–GTP–BrCO6K; Rab5a-84BrCO6K; source: E. coli DH10B, purified (Ni-NTA, size-exclusion chromatography)

More lines, now with the values behind:

B1: Rab5a(1-211)-Q79L (natural protein, human, UniProt P20339 1-211, looked up)
chain: MASRGATRPNGPNTGNKICQFKLVLLGESAVGKSSLVLRFVKGQFHEFQESTIGAAFLTQTVCLDDTTVKFEIWDTAGLERYHSLAPMYYRGAQAAIVVYDITNEESFARAKNWVKELQRQASPNIVIALSGNKADLANKRAVDFQEAQSYADDNSLLFMETSAKTSMNVNEIFMAIAKKLPKNEPQNPGANSARGRGVDLTEPTQPTRNQ
notes: Rab5a, human, last 4 residues (CCSN) deleted, residues 1-211; Loaded with GTP; used soluble for HDX-MS; also called Rab5a-Q79L-GTP; Rab5a (Q79L) loaded with GTP; source: E. coli C41(DE3)RIPL, purified (as Rab5a(1–212)); not shown: His-SUMO, N-terminal, cleaved
binding result [1]: binds

B2: Rab1a(1–204)-Q70L-C26S-C126S (natural protein)
chain: not shown
modifications: C-terminal cysteine coupled covalently to a maleimide-conjugated lipid (PE-MCC) in the membrane
notes: Loaded with GTP or GDP before coupling to GUVs or LUVs; also called Rab1a–GTP; Rab1a–GDP; source: E. coli C41(DE3)RIPL, purified (Glutathione Sepharose, TEV protease, HiTrap Q, heparin, size-exclusion chromatography); not shown: GST, N-terminal, cleaved
binding result [2]: binds
